B1: T1.02 (anti-hu FAP/hu IL-12 mut1, hu IgG1 DANG) (bispecific antibody)
heavy: QVQLVQSGAEVKKPGASVKVSCKTSRYTFTEYTIHWVRQAPGQRLEWIGGINPNNGIPNYNQKFKGRVTITVDTSASTAYMELSSLRSEDTAVYYCARRRIAYGYDEGHAMDYWGQGTLVTVSSASTKGPSVFPLAPSSKSTSGGTAALGCLVKDYFPEPVTVSWNSGALTSGVHTFPAVLQSSGLYSLSSVVTVPSSSLGTQTYICNVNHKPSNTKVDKKVEPKSCDKTHTCPPCPAPELLGGPSVFLFPPKPKDTLMISRTPEVTCVVVAVSHEDPEVKFNWYVDGVEVHNAKTKPREEQYGSTYRVVSVLTVLHQDWLNGKEYKCKVSNKALPAPIEKTISKAKGQPREPQVYTLPPSRDELTKNQVSLWCLVKGFYPSDIAVEWESNGQPENNYKTTPPVLDSDGSFFLYSKLTVDKSRWQQGNVFSCSVMHEALHNHYTQKSLSLSPGK
light: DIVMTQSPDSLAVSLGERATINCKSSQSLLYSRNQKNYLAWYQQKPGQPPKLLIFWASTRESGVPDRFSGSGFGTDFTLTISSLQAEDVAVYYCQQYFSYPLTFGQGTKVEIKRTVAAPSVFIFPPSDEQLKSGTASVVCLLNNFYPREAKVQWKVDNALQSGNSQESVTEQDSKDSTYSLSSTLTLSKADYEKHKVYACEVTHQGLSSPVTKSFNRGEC
chain: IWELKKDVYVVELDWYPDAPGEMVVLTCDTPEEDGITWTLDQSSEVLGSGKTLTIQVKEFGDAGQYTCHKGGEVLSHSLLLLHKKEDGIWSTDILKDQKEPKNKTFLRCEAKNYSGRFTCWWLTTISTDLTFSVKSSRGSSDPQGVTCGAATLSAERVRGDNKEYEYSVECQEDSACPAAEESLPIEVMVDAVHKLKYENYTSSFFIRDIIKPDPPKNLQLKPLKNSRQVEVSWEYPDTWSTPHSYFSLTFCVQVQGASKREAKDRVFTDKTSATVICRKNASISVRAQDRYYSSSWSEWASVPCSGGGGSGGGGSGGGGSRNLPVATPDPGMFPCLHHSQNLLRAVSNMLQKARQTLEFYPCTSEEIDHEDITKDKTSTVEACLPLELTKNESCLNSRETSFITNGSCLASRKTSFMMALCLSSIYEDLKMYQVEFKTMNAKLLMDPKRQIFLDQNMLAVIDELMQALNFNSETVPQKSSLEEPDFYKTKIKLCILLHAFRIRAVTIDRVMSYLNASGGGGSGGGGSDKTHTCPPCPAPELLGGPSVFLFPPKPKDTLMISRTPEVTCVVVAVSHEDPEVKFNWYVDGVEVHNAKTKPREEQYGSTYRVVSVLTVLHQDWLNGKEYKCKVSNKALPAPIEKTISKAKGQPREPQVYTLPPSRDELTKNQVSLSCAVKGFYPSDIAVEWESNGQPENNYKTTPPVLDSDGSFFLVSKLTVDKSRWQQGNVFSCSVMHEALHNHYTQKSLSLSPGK
B2: T1.01 (anti-hu FAP/hu IL-12, hu IgG1 DANG) (bispecific antibody)
heavy: B1 heavy
light: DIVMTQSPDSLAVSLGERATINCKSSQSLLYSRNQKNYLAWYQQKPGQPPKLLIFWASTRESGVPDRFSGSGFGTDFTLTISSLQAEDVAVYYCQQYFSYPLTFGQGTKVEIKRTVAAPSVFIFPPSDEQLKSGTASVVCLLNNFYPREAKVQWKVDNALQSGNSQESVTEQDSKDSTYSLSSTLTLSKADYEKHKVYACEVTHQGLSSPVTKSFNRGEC
chain: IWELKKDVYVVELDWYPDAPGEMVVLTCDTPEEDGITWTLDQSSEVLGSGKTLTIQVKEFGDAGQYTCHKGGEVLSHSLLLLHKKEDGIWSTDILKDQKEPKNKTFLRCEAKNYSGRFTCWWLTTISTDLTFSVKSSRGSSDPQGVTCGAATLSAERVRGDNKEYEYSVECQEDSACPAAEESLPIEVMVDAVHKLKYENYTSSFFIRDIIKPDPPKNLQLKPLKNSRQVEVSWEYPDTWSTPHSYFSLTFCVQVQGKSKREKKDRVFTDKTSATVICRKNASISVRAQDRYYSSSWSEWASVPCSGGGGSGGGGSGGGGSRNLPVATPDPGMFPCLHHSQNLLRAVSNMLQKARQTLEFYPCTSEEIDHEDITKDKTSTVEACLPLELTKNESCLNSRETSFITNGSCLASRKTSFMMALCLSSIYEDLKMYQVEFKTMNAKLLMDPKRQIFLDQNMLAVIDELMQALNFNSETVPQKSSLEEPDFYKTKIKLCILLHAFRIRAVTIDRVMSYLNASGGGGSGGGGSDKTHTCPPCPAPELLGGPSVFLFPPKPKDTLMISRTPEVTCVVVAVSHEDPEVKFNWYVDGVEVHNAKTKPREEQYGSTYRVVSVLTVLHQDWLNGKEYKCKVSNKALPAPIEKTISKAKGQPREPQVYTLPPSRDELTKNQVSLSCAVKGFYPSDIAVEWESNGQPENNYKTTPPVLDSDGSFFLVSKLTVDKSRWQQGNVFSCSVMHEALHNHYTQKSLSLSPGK
B3: T1.03 (anti-hu FAP/hu IL-12 mut2, hu IgG1 DANG) (bispecific antibody)
heavy: B1 heavy
light: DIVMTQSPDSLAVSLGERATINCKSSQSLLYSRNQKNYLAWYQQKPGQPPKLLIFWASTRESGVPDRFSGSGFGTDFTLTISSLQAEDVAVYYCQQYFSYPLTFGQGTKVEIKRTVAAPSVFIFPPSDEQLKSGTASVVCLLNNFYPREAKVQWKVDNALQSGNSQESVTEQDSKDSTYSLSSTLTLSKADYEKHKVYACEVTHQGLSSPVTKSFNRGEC
chain: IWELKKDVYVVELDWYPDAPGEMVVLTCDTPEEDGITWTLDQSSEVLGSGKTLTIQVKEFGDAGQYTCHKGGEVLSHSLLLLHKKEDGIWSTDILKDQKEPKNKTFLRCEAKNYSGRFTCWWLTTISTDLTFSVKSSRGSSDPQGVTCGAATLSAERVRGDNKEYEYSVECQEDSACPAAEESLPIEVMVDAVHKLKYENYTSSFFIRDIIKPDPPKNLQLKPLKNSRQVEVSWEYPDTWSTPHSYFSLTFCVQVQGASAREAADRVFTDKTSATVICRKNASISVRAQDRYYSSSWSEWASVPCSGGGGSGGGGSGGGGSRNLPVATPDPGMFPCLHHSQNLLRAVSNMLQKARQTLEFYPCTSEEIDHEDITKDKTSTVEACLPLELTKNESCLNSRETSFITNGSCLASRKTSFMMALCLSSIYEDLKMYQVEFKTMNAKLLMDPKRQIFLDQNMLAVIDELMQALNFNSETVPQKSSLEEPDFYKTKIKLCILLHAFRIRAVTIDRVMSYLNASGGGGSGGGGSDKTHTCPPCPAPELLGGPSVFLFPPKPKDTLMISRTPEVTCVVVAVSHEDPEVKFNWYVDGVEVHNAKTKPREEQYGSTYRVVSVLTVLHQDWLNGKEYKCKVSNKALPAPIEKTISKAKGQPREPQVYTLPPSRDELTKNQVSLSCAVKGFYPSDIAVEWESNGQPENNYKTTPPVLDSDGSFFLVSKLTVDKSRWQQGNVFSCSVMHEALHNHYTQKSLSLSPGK

Biological target: IL-12 receptor of human T cells (human, UniProt P42701 24-662; Q99665 24-862)
Assay: cell-based or functional assay

Sequence of IL-12 receptor of human T cells (Q99665 24-862, chain 2 of 2, other chains not shown): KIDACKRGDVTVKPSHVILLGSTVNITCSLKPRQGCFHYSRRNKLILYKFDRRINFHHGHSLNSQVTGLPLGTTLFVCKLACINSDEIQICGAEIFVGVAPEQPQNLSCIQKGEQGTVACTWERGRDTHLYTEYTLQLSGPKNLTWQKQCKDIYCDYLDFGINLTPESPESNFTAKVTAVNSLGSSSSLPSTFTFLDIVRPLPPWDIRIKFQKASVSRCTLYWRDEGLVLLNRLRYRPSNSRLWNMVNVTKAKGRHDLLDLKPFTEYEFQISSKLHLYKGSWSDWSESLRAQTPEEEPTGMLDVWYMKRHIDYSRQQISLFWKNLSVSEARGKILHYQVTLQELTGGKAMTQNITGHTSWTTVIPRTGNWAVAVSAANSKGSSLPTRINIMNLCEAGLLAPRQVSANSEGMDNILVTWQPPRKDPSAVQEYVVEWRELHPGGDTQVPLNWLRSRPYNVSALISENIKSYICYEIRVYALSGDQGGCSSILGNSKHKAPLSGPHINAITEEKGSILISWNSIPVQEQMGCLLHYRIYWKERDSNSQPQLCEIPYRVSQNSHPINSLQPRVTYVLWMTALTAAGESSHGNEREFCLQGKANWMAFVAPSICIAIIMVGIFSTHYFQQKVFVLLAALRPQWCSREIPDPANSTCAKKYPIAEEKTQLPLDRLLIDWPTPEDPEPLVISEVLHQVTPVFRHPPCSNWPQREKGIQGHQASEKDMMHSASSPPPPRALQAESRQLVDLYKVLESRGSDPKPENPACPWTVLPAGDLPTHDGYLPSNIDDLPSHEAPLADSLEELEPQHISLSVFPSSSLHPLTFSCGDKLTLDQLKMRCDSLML

Going from B1 to B2, the “change of the p-STAT4 EC50 in human T cells with low molecular weight heparin against without” value rises from 5.5 times to 9.4 times.

For B3, the “change of the p-STAT4 EC50 in human T cells with low molecular weight heparin against without” value was 4 times.

Compared with B1, B2 is 3.9-fold lower in “half maximal effective concentration (EC50) of p-STAT4 (Tyr693) in activated human T cells, AlphaLISA” value: 0.0565 nM for the first, 0.0145 nM for the second.

B3 was tested, and the “half maximal effective concentration (EC50) of p-STAT4 (Tyr693) in activated human T cells, AlphaLISA” value was 0.147 nM.

— patent US20230295258A1 (KANAPH THERAPEUTICS, published 2023)
